Ends that are not written are not given here.
How the values were obtained:
[1] = molecular target: T1, human GPRC6A isoform 3 (Homo sapiens, UniProt Q5T6X5); assay: cAMP accumulation in HEK-293 cells transfected with human GPRC6A isoform 3; type: cell-based; conditions: isoform 3; Ocn 1.73-26.0 nM; 1 mM calcium; 40 min; Figure 2C
T1 construct: expressed in transfected cells; host or cells: HEK-293
T1 sequence (Q5T6X5 19-855 isoform Q5T6X5-3 limits assumed): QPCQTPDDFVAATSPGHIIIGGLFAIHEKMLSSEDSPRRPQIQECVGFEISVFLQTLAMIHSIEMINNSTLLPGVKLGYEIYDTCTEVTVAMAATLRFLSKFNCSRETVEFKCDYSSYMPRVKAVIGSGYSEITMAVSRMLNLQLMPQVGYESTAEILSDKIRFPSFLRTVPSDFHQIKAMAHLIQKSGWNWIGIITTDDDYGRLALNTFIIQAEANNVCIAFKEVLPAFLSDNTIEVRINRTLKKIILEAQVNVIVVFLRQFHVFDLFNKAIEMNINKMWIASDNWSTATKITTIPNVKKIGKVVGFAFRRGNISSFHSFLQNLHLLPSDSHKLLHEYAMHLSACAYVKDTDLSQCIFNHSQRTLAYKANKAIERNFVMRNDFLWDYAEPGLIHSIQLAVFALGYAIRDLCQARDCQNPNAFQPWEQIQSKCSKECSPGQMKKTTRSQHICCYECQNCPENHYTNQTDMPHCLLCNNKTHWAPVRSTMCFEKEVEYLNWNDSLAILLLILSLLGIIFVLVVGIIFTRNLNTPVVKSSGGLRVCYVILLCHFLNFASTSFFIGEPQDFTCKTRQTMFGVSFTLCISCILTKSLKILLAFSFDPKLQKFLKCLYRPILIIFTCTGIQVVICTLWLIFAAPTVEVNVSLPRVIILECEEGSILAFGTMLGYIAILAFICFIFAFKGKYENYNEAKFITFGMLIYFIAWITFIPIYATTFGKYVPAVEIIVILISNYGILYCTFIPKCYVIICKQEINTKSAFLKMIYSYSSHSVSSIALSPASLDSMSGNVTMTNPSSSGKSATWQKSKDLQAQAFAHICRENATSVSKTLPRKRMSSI
Protocol: HEK‐293 transfected with human GPRC6A isoform cDNA plasmids cells (10^5 cells/well)[30] were cultured in 24‐well plates in DMEM supplemented with 10% fetal bovine serum and 1% penicillin/streptomycin (100 U/mL of penicillin and 100 μg/mL of streptomycin) for 48 h followed by 4 h incubation in DMEM/F12 containing 0.1% BSA and 0.5 mM IBMX to achieve quiescence and preventing cAMP degradation. Quiescent cells were treated with vehicle control, various ligands at concentration as indicated for 40 min at 37°C. Then, the reaction was stopped, and the cells lysed with 0.5 mL 0.1 N HCl. cAMP levels were measured by using Cyclic AMP EIA kit (Cayman Chemical; Ann Arbor, MA, USA) following the manufacture's protocol.

[2] = molecular target: T1, human GPRC6A isoform 3; assay: ERK activation (ELISA) in HEK-293 cells transfected with human GPRC6A isoform 3; type: cell-based; conditions: Ocn 1.73-26.0 nM, 1 mM calcium, 15 min, Figure 2B
Protocol: All culture reagents were from Invitrogen (Waltham, MA, USA). Human embryonic kidney HEK‐293 cells were obtained from American Type Culture Collection and cultured in DMEM medium supplemented with 10% fetal bovine serum and 1% Penicillin/Streptomycin (P/S). Briefly, HEK‐293 cells transfected with/without human GPRC6A isoforms cDNA plasmids were starved by overnight incubation in serum‐free DMEM/F12 containing 0.1% bovine serum albumin (BSA) and stimulated with various ligands at different doses. […]

Which “Ocn-induced cAMP accumulation, dose response” value [1] does the source give for “osteocalcin (YLYQWLGAPVPYPDPLEPRREVCELNPDCDELADHIGFQEAYRRFYGPV; not fully specified; ends and bridges not checked; UniProt P02818 52-100, looked up) [Ocn 1–49, full human Ocn (49 aa) synthesized by BioMatik; methods also describe decarboxylated Ocn purified from bovine tibial bone, reference compound]” here?
The value was “maintained the cAMP response”.

And the “Ocn-induced ERK activation, dose response” value [2]?
The value was “attenuation of Ocn‐induced ERK stimulation”.
